For experiment [1], the target named is T1, 磷脂酰肌醇蛋白聚糖3(GPC3) (UniProt P51654 25-554).
T1 construct: whole, on cells; also called MXR7; OCI-5
The experiment is described as follows: flow cytometry on HuH-7 cells, full-length IgG1.

Experiment [2] concerns the target T1, 磷脂酰肌醇蛋白聚糖3(GPC3). Put plainly: flow cytometry on GPC3-CHO-S cells, full-length IgG1.
The target in experiment [3] is T1, 磷脂酰肌醇蛋白聚糖3(GPC3). Put plainly: flow cytometry on HepG2 cells.
In experiment [4] the target is T1, 磷脂酰肌醇蛋白聚糖3(GPC3). Put plainly: flow cytometry on HuH-7 cells.
Experiment [5] has as its target T1, 磷脂酰肌醇蛋白聚糖3(GPC3). Put plainly: flow cytometry on GPC3-CHO-S cells.
In experiment [6] the target is T1, 磷脂酰肌醇蛋白聚糖3(GPC3). The experiment is described as follows: flow cytometry on HepG2 cells, full-length IgG1.

T1 sequence (P51654 25-554 limits assumed, form in doubt): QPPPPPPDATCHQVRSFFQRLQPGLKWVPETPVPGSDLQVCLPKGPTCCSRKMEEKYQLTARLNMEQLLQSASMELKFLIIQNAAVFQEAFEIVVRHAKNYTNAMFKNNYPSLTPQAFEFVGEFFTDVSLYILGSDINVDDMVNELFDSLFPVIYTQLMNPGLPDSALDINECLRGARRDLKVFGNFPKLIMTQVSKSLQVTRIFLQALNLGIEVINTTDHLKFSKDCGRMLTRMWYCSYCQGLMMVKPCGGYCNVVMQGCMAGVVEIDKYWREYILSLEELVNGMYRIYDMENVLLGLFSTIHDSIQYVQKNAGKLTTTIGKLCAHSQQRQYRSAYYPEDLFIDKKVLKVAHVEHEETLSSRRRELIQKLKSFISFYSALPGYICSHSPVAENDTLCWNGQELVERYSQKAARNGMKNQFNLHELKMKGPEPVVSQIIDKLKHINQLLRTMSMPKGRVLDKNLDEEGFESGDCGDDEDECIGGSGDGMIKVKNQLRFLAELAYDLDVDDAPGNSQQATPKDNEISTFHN

B1: D5 (antibody, V domains shown)
VH: EVQLLESGGGVVQPGRSLRLSCAASGFTFSSYAMHWVRQAPGKGLEWVAVISYDGSNKYYADSVKGRFTISRDNSKNTLYLQMNSLRAEDTAVYYCARQYSSSSPFDYWGQGTLVTVSS
VL: NIQLTQSPSTLSASVGDRITITCRASQSISRWLAWYQQKPGKAPKVLIYKASNLENGVPSRFSGSGSGTEFTLTISSLQPDDSATYYCQQHSYSSPWRFGQGTKVEIK
notes: also called 克隆D5
Turning to B1, the results for the EC50 with 磷脂酰肌醇蛋白聚糖3(GPC3) [1] and in the experiment with 磷脂酰肌醇蛋白聚糖3(GPC3) [2] were 9.62 µg/mL and 0.0664 µg/mL, respectively.

B2: Codrituzumab (antibody, human IgG1, kappa, V domains shown)
VH: QVQLVQSGAEVKKPGASVKVSCKASGYTFTDYEMHWVRQAPGQGLEWMGALDPKTGDTAYSQKFKGRVTLTADKSTSTAYMELSSLTSEDTAVYYCTRFYSYTYWGQGTLVTVSS
VL: DVVMTQSPLSLPVTPGEPASISCRSSQSLVHSNRNTYLHWYLQKPGQSPQLLIYKVSNRFSGVPDRFSGSGSGTDFTLKISRVEAEDVGVYYCSQNTHVPPTFGQGTKLEIKR
notes: also called GC33; GPC3阳性抗体
Regarding B2, the results for the EC50 with 磷脂酰肌醇蛋白聚糖3(GPC3) [3], in the experiment with 磷脂酰肌醇蛋白聚糖3(GPC3) [4] and in the experiment with 磷脂酰肌醇蛋白聚糖3(GPC3) [5] were 0.172 µg/mL, 0.191 µg/mL and 0.184 µg/mL, respectively.

B3: D38 (antibody, V domains shown)
VH: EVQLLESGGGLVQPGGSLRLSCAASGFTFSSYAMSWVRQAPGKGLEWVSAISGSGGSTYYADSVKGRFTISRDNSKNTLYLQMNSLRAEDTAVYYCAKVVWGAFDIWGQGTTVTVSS
VL: NIQMTQSPSSLSASVGDRVTISCQASQDISNYVNWYQQRPGKAPKLLMYDASNLEVGVPVRFRGSGSGTEFTFTILSLQPEDLGTYYCQQYDSLPFTFGQGTKLDLK
notes: also called 克隆D38
Turning to B3, the EC50 is 83.9 µg/mL with 磷脂酰肌醇蛋白聚糖3(GPC3) [6], 45.1 µg/mL with 磷脂酰肌醇蛋白聚糖3(GPC3) [1] and 0.0394 µg/mL with 磷脂酰肌醇蛋白聚糖3(GPC3) [2].

B4: D48 (antibody, V domains shown)
VH: EVQLLESGGGLVQPGESLRLSCEASGLTFSSYPMAWVRQAPGKGLEWVSVIYSDGSKKFYADSVKGRFTISRHNSKNTLYLQMNSLRAEDTAVYYCARGISSSGFDYWGQGTLVTVSS
VL: DIQLTQSPSSLSASVGDRVTITCRASQGISSWLAWYQQKPGKAPKLLIYAASSLQSGVPSRFSGSGSGTDFTLTISSLQPEDFATYYCQQGNSFPLTFGGGTKVEIK
notes: also called 克隆D48
With B4, the EC50 with 磷脂酰肌醇蛋白聚糖3(GPC3) [6] stood at 11.6 µg/mL; with 磷脂酰肌醇蛋白聚糖3(GPC3) [2] it was 0.0968 µg/mL.

B5: D35 (antibody, V domains shown)
VH: EVQLVESGGGVVKPGGSLRLSCAASGFIFSDSYMTWLRQAPGKGLEWVSYISGSASDIKYADSVKGRFTISRDNAKNSLYLQMNSLRVEDTAVYYCARDPRLAGIWGQGTTVTVSS
VL: DIQLTQSPSTLSASIGDRVTITCRASQRVSSRLAWYQQKPGKAPKLLIYKTSNLEAEVPSRFSGSGSGTEFTLTISSLQPDDFATYYCQQYHSYPLTFGGGTKVEIK
notes: also called 克隆D35
As for B5, the results for the EC50 in the experiment with 磷脂酰肌醇蛋白聚糖3(GPC3) [6] and with 磷脂酰肌醇蛋白聚糖3(GPC3) [2] were 7.94 µg/mL and 0.0316 µg/mL, respectively.

B6: D37 (antibody, V domains shown)
VH: QVQLLESGGGLVQPGGSLRLSCAASGFTFSSYAMNWVRQAPGKGLEWVSTISGSGGSTYYADSVKGRFTISRDNSKNTLYLQMNSLRAEDTAVYYCARGSWGAFDIWGQGTPVTVSS
VL: DIQLTQSPSSLSASVGDRVTITCQASQGISNYVNWYQQKPGKAPELLISDAYNLEAGVPSTFSGSGSGTQFTFTISSLQPEHIGTYYCQQFETIPWTFGQGTKIEVK
notes: also called 克隆D37
For B6, the EC50 turned out to be 6.21 µg/mL with 磷脂酰肌醇蛋白聚糖3(GPC3) [1] and 0.0314 µg/mL with 磷脂酰肌醇蛋白聚糖3(GPC3) [2].

B7: D47 (antibody, V domains shown)
VH: EVQLLESGGGLVKPGGSLRLSCAASGFTFSSYSMNWVRQAPGKGLEWVSSISSSSSYIYYADSVKGRFTISRDNAKNSLYLQMNSLRAEDTAVYYCARGAARFDYWGQGTMVTVSS
VL: NIQLTQSPSSVSASVGDRVTITCRASQGIWRWLAWYQHKPGKAPKLLISAASNLQSGVPSRFSGSGSGTDFTLTISSLQPEDVATYYCQQANSFPSLTFGGGTKVDIR
notes: also called 克隆D47
In the experiment with 磷脂酰肌醇蛋白聚糖3(GPC3) [1], B7 came in with an EC50 of 0.0228 µg/mL.

B8: D42 (antibody, V domains shown)
VH: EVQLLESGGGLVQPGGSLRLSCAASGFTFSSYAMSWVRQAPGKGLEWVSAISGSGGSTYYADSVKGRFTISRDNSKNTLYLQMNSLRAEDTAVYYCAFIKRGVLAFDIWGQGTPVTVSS
VL: DIQLTQSPSSVSASVGDRVVITCRASQSLGNWLAWYQQKPGKAPNLLIYGASTLQTGVPSRFSGFHSGGEYTLSISNLQPEDAATYYCQQASSIPLTFGGGTKVEIK
notes: also called 克隆D42
For B8, in the experiment with 磷脂酰肌醇蛋白聚糖3(GPC3) [6], a half-maximal response (EC50) required 18.3 µg/mL.

B9: D36 (antibody, V domains shown)
VH: EVQLLESGGGLVKPGGSLRLSCAASGFTFSSYSMNWVRQAPGKGLEWVSSISSSSSYIYYADSVKGRFTISRDNAKNSLYLQMNSLRAEDTAVYYCARETTDGGMDVWGQGTLVTVSS
VL: DIQMTQSPSSVSASVGDRVTITCRASQDIGKYLNWYQQKAGKAPNLLIYDASNLKTGVSSRFSGSGSGTEFTFTISSLQPEDIATYFCQQFDDFPYTFGPGTKVGIR
notes: also called 克隆D36
The molecule B9 returned an EC50 with 磷脂酰肌醇蛋白聚糖3(GPC3) [2] of 0.0394 µg/mL.
